Experimental findings from patent US20230374068A1, “COMPOSITIONS AND METHODS FOR TREATING A DISEASE” (RAMOT AT TEL AVIV UNIVERSITY LTD., priority 2021, published 2023) are described below.

T1: T7-RILP(L231A) (pEF-T7-RILP(L231A)) (mouse, UniProt Q5ND29 1-369)
T1 construct: RHD mutant; expressed in transfected RBL cells
T1 sequence (looked up): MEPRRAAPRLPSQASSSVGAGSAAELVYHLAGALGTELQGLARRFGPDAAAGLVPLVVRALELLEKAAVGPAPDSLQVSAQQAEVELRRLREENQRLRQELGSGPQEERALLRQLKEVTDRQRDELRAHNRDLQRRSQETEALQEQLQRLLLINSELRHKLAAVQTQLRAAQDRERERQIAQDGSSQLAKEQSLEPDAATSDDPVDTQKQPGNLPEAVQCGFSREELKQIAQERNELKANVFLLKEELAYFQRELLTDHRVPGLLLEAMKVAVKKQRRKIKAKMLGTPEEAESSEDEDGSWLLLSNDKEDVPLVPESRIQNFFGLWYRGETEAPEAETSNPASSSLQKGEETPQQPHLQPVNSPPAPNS

T2: T7-RILP(E233A) (pEF-T7-RILP(E233A)) (mouse, UniProt Q5ND29 1-369)
T2 construct: RHD mutant; expressed in transfected RBL cells
T2 sequence (looked up): T1 sequence (looked up) with A231L, E233A

T3: T7-RILP-L1 (pEF-T7-RILP-L1) (mouse, UniProt Q9JJC6 1-406)
T3 construct: The pEF-T7 plasmid was 'prepared as previously described'; also called T7-tagged RILP-L1; RILP-like 1
T3 sequence (looked up): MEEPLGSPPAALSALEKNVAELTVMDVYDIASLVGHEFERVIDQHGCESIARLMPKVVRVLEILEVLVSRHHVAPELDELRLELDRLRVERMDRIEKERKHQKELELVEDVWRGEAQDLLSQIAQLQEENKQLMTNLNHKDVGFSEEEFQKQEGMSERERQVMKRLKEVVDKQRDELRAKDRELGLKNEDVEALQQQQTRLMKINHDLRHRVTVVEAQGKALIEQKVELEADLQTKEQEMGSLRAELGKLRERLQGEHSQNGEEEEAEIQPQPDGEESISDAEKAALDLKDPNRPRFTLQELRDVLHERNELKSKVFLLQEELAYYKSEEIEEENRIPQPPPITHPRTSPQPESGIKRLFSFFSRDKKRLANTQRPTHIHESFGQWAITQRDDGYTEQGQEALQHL

T4: endogenous Rab12 of RBL cells (rat, UniProt P35284 49-291, limits assumed)
T4 construct: Total Rab12 pulled down from cell lysates (blot reprobed with anti-Rab12)
T4 sequence (looked up): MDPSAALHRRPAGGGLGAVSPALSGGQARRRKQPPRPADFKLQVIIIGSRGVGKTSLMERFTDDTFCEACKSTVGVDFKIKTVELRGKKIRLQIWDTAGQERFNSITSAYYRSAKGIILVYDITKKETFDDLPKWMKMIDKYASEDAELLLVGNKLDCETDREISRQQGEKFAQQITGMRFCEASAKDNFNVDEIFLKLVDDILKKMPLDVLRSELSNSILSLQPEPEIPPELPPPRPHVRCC

T5: GFP-RILP-L1 (mouse RILP-like 1 in pEGFP-C1) (mouse, UniProt Q9JJC6 1-406)
T5 construct: Expressed in transfected RBL cells; tested in cell lysate; also called pEGFP-C1-RILP-L1; not shown: EGFP of the pEGFP-C1 vector
T5 sequence (looked up): T3 sequence (looked up)

B1: GST-Rab12 (pGEX-4T-3-Rab12) (other, mouse, UniProt P35283 49-291, looked up)
chain: T4 sequence (looked up) with G15S, S214N
notes: Immobilized on glutathione agarose beads; pulldown in the presence of 0.5 mM GTPgammaS; also called immobilized Rab12; not shown: glutathione S-transferase (GST) encoded by the pGEX-4T-3 vector
B2: GFP-RILP (mouse RILP in pEGFP-C1) (other, UniProt Q5ND29 1-369, looked up)
chain: T1 sequence (looked up) with A231L
notes: Expressed in transfected RBL cells; tested in cell lysate; also called GFP-fused RILP; pEGFP-C1-RILP; not shown: EGFP of the pEGFP-C1 vector
B3: GST-RILP-L2 (pGEX-4T-3-RILP-L2) (other, mouse, UniProt Q99LE1 1-197, looked up)
chain: MEDHPVREEEDGEEDEGALAKSPLQLTTDDVYDISYVVGRELMALGSDPRVTRLQFKIVRVMEMLETLVNEGSLAVEELRMERDNLKQEVEGLRKAGVSGAQVNLGPDKMVVDLTDPNRPRFTLQELREVLQERNKLKSQLLLVQEELQCYRSGLLPPRETPGGRREKDAVVAMGNGEKEERTIMKKLFSFRSGKHT
notes: Immobilized on glutathione agarose beads; not shown: glutathione S-transferase (GST) encoded by the pGEX-4T-3 vector
B4: T7-RILP-L2 (pEF-T7-RILP-L2) (other, mouse, UniProt Q99LE1 1-197, looked up, not shown: small tags and cut ends)
chain: B3 chain
notes: The pEF-T7 plasmid was 'prepared as previously described'; also called T7-tagged RILP-L2; RILP-like 2

Positions count from the first letter of the chain named.

Assay [1] addresses T1, T7-RILP(L231A) (pEF-T7-RILP(L231A)). Briefly: cell-based or functional assay.
Assay [2] deals with T7-RILP (pEF-T7-RILP) (mouse) (UniProt Q5ND29). Briefly: cell-based or functional assay.
Assay [3] deals with T1, T7-RILP(L231A) (pEF-T7-RILP(L231A)). Briefly: GST-Rab12 pulldown from RBL cell lysates with GTPgammaS, anti-T7 immunoblot. As for the experimental part:
(§1) Bound proteins were eluted by sample buffer, and analyzed by SDS-PAGE and immunoblotting, using monoclonal antibodies directed against T7. Input=10% of total protein. A representative blot is shown. […] The results are the average pulldown±SEM derived from three independent experiments. *P[(T7-RILP/T7-RILP(L231A)]=0.0480, *P[T7-RILP/T7-RILP(E233A)]=0.0498.
(§2) Pulldown assays were performed as previously described 2. Briefly, 20 μg of GST fusion proteins or control GST immobilized on Glutathione Agarose beads were incubated for 18 hours at 4° C. with RBL cell lysates (500 μg) prepared in buffer C (50 mM Hepes pH 7.4, 150 mM NaCl, 1 mM MgCl₂, 1% TritonX100, 1 mM PMSF, protease inhibitor mixture, 2 mM Na₃VO₄) in the presence of 0.5 mM GTPγS. At the end of the incubation period, beads were sedimented by centrifugation at 5000×g for 5 minutes at 4° C., washed 4 times in buffer C with 0.2% TritonX100, and finally suspended in sample buffer, boiled for 7 minutes, and subjected to SDS-PAGE and immunoblotting. In pulldown experiments of endogenous phosphoRab12, cell lysates were prepared in buffer D (50 mM Hepes pH 7.4, 150 mM NaCl, 1 mM MgCl₂, 1% TritonX100, 1 mM PMSF, protease inhibitor mixture, 2 mM Na₃VO₄, 10 mM NaPPi and 80 mM β-glycerophosphate) and the pulldown assay was conducted in the absence of GTPγS. Beads were washed in buffer D with 0.2% TritonX100.

The target of assay [4] is T2, T7-RILP(E233A) (pEF-T7-RILP(E233A)). The assay is described as above. As for the experimental part: as §1, §2
Assay [5] deals with T3, T7-RILP-L1 (pEF-T7-RILP-L1). Briefly: co-immunoprecipitation from co-transfected RBL cell lysates, IP anti-GFP, blot anti-T7. On the procedure: (§3) FIGS. 1A, 1B show the results of immunoprecipitations in which cell lysates derived from the rat mast cell line RBL-2H3, herein referred to as RBL cells, that were co-transfected with 17.5 μg of pEGFP plasmid encoding either RILP, RILP-L1 or RILP-L2 and 17.5 μg of pEF plasmid encoding either T7-RILP, T7-RILP-L1 or T7-RILP-L2, as indicated, were subjected to immunoprecipitation with rabbit polyclonal antibodies directed against GFP. FIGS. 1C, 1D show the results of immunoprecipitations in which the RBL cell lysates described above were subjected to immunoprecipitation with mouse monoclonal antibodies directed against the T7 epitope. Immune complexes were then analyzed by SDS-PAGE and immunoblotting with mouse monoclonal anti T7 antibodies, followed by reprobing with polyclonal anti GFP antibodies (FIGS. 1A, 1B), or with polyclonal anti GFP antibodies followed by reprobing with monoclonal anti T7 antibodies (FIGS. 1C, 1D), as indicated. Input=10% of total protein.
(§4) RBL cell lysates (500 μg) prepared in buffer A (50 mM Hepes pH 7.4, 250 mM NaCl, 1 mM MgCl₂, 1% Triton X-100, protease inhibitor mixture, 1 mM PMSF, 2 mM Na₃VO₄) were incubated overnight at 4° C. with either rabbit polyclonal anti-GFP antibodies (2 μg) or mouse monoclonal anti-T7 antibodies (1 μg). Protein A/G-Sepharose (50% v/v) was then added for 1.5 h at 4° C. Immune complexes were collected, washed three times with buffer B (50 mM Hepes pH 7.4, 150 mM NaCl, 1 mM MgCl₂, 0.2% Triton X-100, protease inhibitor mixture, 1 mM PMSF, 2 mM Na₃VO₄), and resuspended in 1× sample buffer, and boiled for 7 min. Proteins were resolved by SDS-PAGE and analyzed by immunoblotting with the desired antibodies.

Assay [6] deals with T4, endogenous Rab12 of RBL cells. The experiment in a line: GST pulldown of endogenous Rab12 from RBL cell lysates, anti-Rab12 immunoblot. On the procedure: Cells were then lysed and 500 μg of cell lysate were incubated overnight at 4° C. with either GST, GST-RILP, GST-RILP-L1 or GST-RILP-L2, immobilized on glutathione agarose beads, as indicated. At the end of the incubation period, beads were sedimented by centrifugation at 5000×g for 5 minutes at 4° C., washed four times with buffer containing 50 mM Hepes pH 7.4, 150 mM NaCl, 1 mM MgCl₂, 0.2% Triton X-100, protease inhibitor mixture, 1 mM PMSF, 2 mM Na₃VO₄, 10 mM NaPPi and 80 mM β-glycerophosphate and suspended in 1× sample buffer and boiled for 7 minutes. Proteins were resolved by SDS-PAGE and analyzed by immunoblotting with the anti-phosphoRab12 antibodies, followed by reprobing with anti Rab12 antibodies, as indicated. Representative blots are shown. Similar results were obtained in two separate experiments.
Next, it was assessed whether […] any impact on Rab12 interactions with its RILP family effectors. To this end, lysates derived from resting RBL cells or RBL cells that were triggered with either IgE/Ag or Ion/TPA, were subjected to pulldown assays by chimeric proteins consisting of GST-fused to either RILP, RILP-L1, or RILP-L2, or control GST. […] Therefore, under these conditions, the efficacy of Rab12-effector interactions was RILP-L1>RILP>>>RILP-L2.
For orientation: In western blotting, separated proteins are transferred to a membrane and probed.

Assay [7] concerns the target B2. The experiment in a line: co-immunoprecipitation from co-transfected RBL cell lysates, IP anti-GFP, blot anti-T7. On the procedure: as §3, §4
In assay [8] the target is T5, GFP-RILP-L1 (mouse RILP-like 1 in …). Described as above. On the procedure:
as §3, §4

Molecule “GFP-Rab12 (pEGFP-C1-Rab12) (from UniProt P35283 49-291)” had an incidence of cells with scattered secretory granules (NPY-mRFP), confocal microscopy of RBL cells in assay [1] of 97%. The molecule also came in with an incidence of cells with perinuclear secretory granules (NPY-mRFP), confocal microscopy of RBL cells in assay [2] of 99%.

Regarding B1, the binding result in assay [3] and in assay [4] was “no binding” in each case.

On to B2, for which the binding result in assay [5] is given as “no binding”.

For B3, in assay [6], the “fold increase in Rab12 pulldown, Ion/TPA-triggered against resting cells” value worked out at 4 fold.

In the case of B4, the binding result in assay [7] and in assay [8] was “no binding” in each case.
